Test results reported in paper PMC4414916 (Biochemistry, 2015).

Tests used:
[1] = system: GLIC–Glyα1–ICD chimeras; test: Proton concentration–response; assay type: cell-based, G. violaceus GLIC / rat Glyα1; conditions: proton activation (pH50), GLIC–Glyα1–ICD set, TEVC, −60 mV, ± standard error
[2] = system: GLIC–GABAAρ1–ICD chimeras; test: Proton concentration–response; assay type: cell-based, G. violaceus GLIC / human GABAAρ1; conditions: proton activation (pH50), GLIC–GABAAρ1–ICD set, TEVC, −60 mV, ± standard error
[3] = system: GLIC–nAChα7–ICD chimeras; test: Proton concentration–response; assay type: cell-based, G. violaceus GLIC / human nAChRα7; conditions: proton activation (pH50), GLIC–nAChα7–ICD set, TEVC, −60 mV, ± standard error
[4] = system: GLIC–nAChα7–ICD chimeras and wild-type GLIC; assay type: cell-based, G. violaceus GLIC / human nAChRα7; conditions: pH 7.5 to 5, after 48 h

B1: WT GLIC: wild-type Gloeobacter violaceus proton-gated pentameric ligand-gated ion channel (protein)
chain: QDMVSPPPPIADEPLTVNTGIYLIECYSLDDKAETFKVNAFLSLSWKDRRLAFDPVRSGVRVKTYEPEAIWIPEIRFVNVENARDADVVDISVSPDGTVQYLERFSARVLSPLDFRRYPFDSQTLHIYLIVRSVDTRNIVLAVDLEKVGKNDDVFLTGWDIESFTAVVKPANFALEDRLESKLDYQLRISRQYFSYIPNIILPMLFILFISWTAFWSTSYEANVTLVVSTLIAHIAFNILVETNLPKTPYMTYTGAIIFMIYLFYFVAVIEVTVQHYLKVESQPARAASITRASRIAFPVVFLLANIILAFLFFGF
modifications: left off: FLAG, C-terminal, state not stated
- −log EC50 [1]: 5.81 ± 0.05
- −log EC50 [2]: 5.81 ± 0.05
- −log EC50 [3]: 5.81 ± 0.05
- effect of RIC-3 co-expression on current amplitudes [4]: did not alter
